Drawing on US6120991, this text covers % adherent HFF control cells on epiligrin-ECM^t and % adherent 51Cr-labeled HFK cells on epiligrin-ECM^t for one substance.

The target of one assay is integrin α3 β1 (human) (UniProt P26006).
A further assay deals with integrin α6 β4 (human) (UniProt P23229).

As for “epiligrin-ECM^t (epiligrin left on the substratum after HFK were detached from their ECM with trypsin) (ligand)”, the % adherent HFF control cells on epiligrin-ECM^t at 37° C. (time course) (% adherent cells) with integrin α3 β1 (human) is 57. Further, the % adherent 51Cr-labeled HFK cells on epiligrin-ECM^t at 4° C. (time course) (% adherent cells) with integrin α6 β4 (human) came out at 28.
